Measurements: US20220106360A1 (UNIVERSITY OF PITTSBURGH OF THE COMMONWEALTH SYSTEM OF …, published 2022)

T1: VAPA 1-242 expressed from pEGFP-N1-VAPA; 1-242 (Addgene #18874) in HEK293 cells (UniProt Q9Z270 1-242)
T1 construct: range 1-242; Used as a whole lysate of transfected HEK293 cells (1 mg/ml total protein), detected with anti-VAPA antibody; also called VAMP-associated protein A; VAPA proteins; not shown: EGFP implied by the vector name pEGFP-N1
T1 sequence (looked up): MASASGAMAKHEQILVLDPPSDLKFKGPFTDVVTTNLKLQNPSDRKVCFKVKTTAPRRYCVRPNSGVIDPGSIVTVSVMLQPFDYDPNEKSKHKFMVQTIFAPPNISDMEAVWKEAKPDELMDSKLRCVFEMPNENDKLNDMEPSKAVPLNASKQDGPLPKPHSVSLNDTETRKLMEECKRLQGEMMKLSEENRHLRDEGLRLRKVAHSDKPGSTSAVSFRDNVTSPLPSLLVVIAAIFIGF

T2: Kv2.1 (endogenous, rat cortical neurons) (rat, UniProt P15387 1-857)
T2 construct: Endogenous channel in fixed, permeabilised primary cortical neurons of Sprague-Dawley rats, detected with a rabbit anti-Kv2.1 antibody; also called delayed-rectifying voltage-gated potassium channel Kv2.1
T2 sequence: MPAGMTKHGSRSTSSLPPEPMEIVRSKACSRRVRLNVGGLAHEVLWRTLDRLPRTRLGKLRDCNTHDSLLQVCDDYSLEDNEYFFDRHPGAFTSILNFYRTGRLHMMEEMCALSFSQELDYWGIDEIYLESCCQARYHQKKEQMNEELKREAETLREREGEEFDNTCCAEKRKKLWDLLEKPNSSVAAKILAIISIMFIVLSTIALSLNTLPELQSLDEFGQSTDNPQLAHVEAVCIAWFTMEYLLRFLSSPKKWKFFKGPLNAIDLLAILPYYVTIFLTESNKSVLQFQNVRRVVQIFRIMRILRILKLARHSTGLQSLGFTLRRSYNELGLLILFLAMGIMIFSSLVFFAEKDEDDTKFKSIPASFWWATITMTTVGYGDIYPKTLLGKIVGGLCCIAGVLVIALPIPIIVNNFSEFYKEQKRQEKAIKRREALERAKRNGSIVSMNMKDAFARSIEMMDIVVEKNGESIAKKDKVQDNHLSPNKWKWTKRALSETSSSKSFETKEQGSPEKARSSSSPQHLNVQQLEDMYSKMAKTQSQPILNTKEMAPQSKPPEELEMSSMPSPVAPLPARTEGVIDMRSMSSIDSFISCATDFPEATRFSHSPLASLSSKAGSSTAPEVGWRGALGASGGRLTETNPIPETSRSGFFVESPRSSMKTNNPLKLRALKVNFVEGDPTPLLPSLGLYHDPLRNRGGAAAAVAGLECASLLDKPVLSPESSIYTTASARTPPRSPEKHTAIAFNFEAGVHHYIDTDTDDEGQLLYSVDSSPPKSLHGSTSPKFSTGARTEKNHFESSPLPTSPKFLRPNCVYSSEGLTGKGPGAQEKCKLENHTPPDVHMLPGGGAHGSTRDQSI

B1: non-canonical FFAT motif of Kv2.1 (SFISCAT) (peptide)
peptide: SFISCAT
notes: The text says it was tested on the peptide array
B2: DP-2 peptide (SIDSFTS) (peptide)
peptide: SIDSFTS
notes: Synthesised and spotted on Celluspots membrane through a polyethylene glycerol spacer (peptide spot array); also called declustering peptide 2
B3: VAPA (endogenous, rat cortical neurons) (other, UniProt Q9Z270 2-249, looked up)
chain: ASASGAMAKHEQILVLDPPSDLKFKGPFTDVVTTNLKLQNPSDRKVCFKVKTTAPRRYCVRPNSGVIDPGSIVTVSVMLQPFDYDPNEKSKHKFMVQTIFAPPNISDMEAVWKEAKPDELMDSKLRCVFEMPNENDKLNDMEPSKAVPLNASKQDGPLPKPHSVSLNDTETRKLMEECKRLQGEMMKLSEENRHLRDEGLRLRKVAHSDKPGSTSAVSFRDNVTSPLPSLLVVIAAIFIGFFLGKFIL
notes: whole, on cells; Endogenous ER protein inside fixed, permeabilised neurons, detected with a mouse anti-VAPA antibody; also called VAMP-associated protein A

What follows are binders tested against T1, VAPA 1-242 expressed from … (assay: peptide spot array (far western) with lysate of HEK293 cells expressing VAPA 1-242, anti-VAPA detection).
Method: Standard 9-fluorenylmethoxy carbonyl chemistry was used to synthesize peptides and spot them onto Celluspots nitrocellulose disks prederivatized with a polyethylene glycerol spacer (Intavis), using the Respep peptide synthesizer. The peptides were spotted on 20 membranes fitted on microscope glass slides (Intavis) using an Intavis MultiPep robot. For hybridization and immunoblotting of arrays, Celluspots slides were washed in TBST (50 mM Tris-HCl, pH 7.4, 150 mM NaCl, 0.1% Tween 20) for 10 minutes, […] blocked for 1 hour at room temperature (RT) with gentle shaking in TBST containing 5% nonfat dry milk. Lysates from HEK293 cells transfected as before (Yeh et al., J Neurosci. 37: 5648-5658, 2017; Yeh et al., Proc Natl Acad Sci USA. 116: 15696-15607, 2019; Dustrude et al., Proc Natl Acad Sci USA. 113: E8443-E8452, 2016) with pEGFP-N1-VAPA; 1-242 (Addgene #18874) were made in 20 mM Tris, 50 mM NaCl, 2 mM MgCl₂, 1% Tergitol, 0.5% sodium deoxycholate, 0.1% sodium dodecyl sulfate with protease (Cat #B14002, Bimake), phosphatase (Cat #B15002, Bimake) inhibitor cocktails and 5 U/ml of universal nuclease (Cat #88702, Thermofisher) added extemporaneously. The concentration of lysates was measured by BCA (Cat #23227, Thermofisher) and peptide arrays were incubated with 1 mg/ml of total protein overnight at 4° C. (Yeh et al., J Neurosci. 37: 5648-5658, 2017; Yeh et al., Proc Natl Acad Sci USA. 116: 15696-15607, 2019; Moutal et al., Pain. 158: 2203-2221, 2017). Peptide arrays were washed 3 times for 5 minutes at RT with TBST and incubated with the primary antibody anti-VAPA (RRID AB_2722707; UC Davis/NIH NeuroMab Facility) for 2 hours at RT with gentle shaking in TBST, 5% BSA. After washing with TBST, the membranes were incubated in secondary antibody (IRDye® 800CW goat anti-mouse IgG secondary antibody; RRID AB_621842; Li-Cor) for 45 minutes, washed 3 times for 5 minutes in TBST, and visualized by infrared fluorescence (Li-Cor). Four independent peptide spot arrays were used in this study. Fluorescence intensity was analyzed with Image studio (Li-Cor).
B1: no binding (tested: lysate at 1 mg/ml of total protein). SFTSCAT [non-canonical FFAT motif of Kv2.2 (SFTSCAT)]: no binding (tested: lysate at 1 mg/ml of total protein). B2: no binding (tested: lysate at 1 mg/ml of total protein). DIDDFTD [Ser to Asp mutant of DP-2 (DIDDFTD)]: no binding (tested: lysate at 1 mg/ml of total protein). SIDSFTD [Ser to Asp mutant of DP-2 (SIDSFTD)]: no binding (tested: lysate at 1 mg/ml of total protein). SIDEFTS [Ser to Glu mutant of DP-2 (SIDEFTS)]: no binding (tested: lysate at 1 mg/ml of total protein). EIDSFTS [Ser to Glu mutant of DP-2 (EIDSFTS)]: no binding (tested: lysate at 1 mg/ml of total protein). SIDEFTE [Ser to Glu mutant of DP-2 (SIDEFTE)]: no binding (tested: lysate at 1 mg/ml of total protein). SIDSFTE [Ser to Glu mutant of DP-2 (SIDSFTE)]: no binding (tested: lysate at 1 mg/ml of total protein). SIDDFTD [Ser to Asp mutant of DP-2 (SIDDFTD)]: no binding (tested: lysate at 1 mg/ml of total protein). EIDEFTE [Ser to Glu mutant of DP-2 (EIDEFTE)]: no binding (tested: lysate at 1 mg/ml of total protein). EIDEFTS [Ser to Glu mutant of DP-2 (EIDEFTS)]: no binding (tested: lysate at 1 mg/ml of total protein). EIDSFTE [Ser to Glu mutant of DP-2 (EIDSFTE)]: no binding (tested: lysate at 1 mg/ml of total protein). DIDDFTS [Ser to Asp mutant of DP-2 (DIDDFTS)]: no binding (tested: lysate at 1 mg/ml of total protein). DIDSFTS [Ser to Asp mutant of DP-2 (DIDSFTS)]: no binding (tested: lysate at 1 mg/ml of total protein). DIDSFTD [Ser to Asp mutant of DP-2 (DIDSFTD)]: no binding (tested: lysate at 1 mg/ml of total protein). SIDDFTS [Ser to Asp mutant of DP-2 (SIDDFTS)]: no binding (tested: lysate at 1 mg/ml of total protein).

The binders below were run against T2, Kv2.1 (endogenous, rat cortical neurons) (assay: proximity ligation assay in fixed rat cortical neurons).
Method: Duolink proximity ligation assay (PLA) technology (Sigma-Aldrich, St. Louis, Mo.) was utilized to assess in situ protein-protein interaction between Kv2.1 and vesicle-associated molecular protein (VAMP)-associated protein A (VAPA). Primary cortical neurons on glass coverslips were treated in 24-well plates with vehicle (dH₂O), TAT-Sc-2 (10 μM), or TAT-DP-2 (10 μM) for 2 hours at 37° C./5% CO₂. Neurons were then rinsed with 2 mL ice-cold sterile PBS and then transferred to 1 mL 4% paraformaldehyde (PFA) in PBS for 20 minutes to fix. Coverslips were transferred to 1 mL 0.1 M glycine (in PBS) to quench fixation and rinsed three times in 1 mL PBS. Membrane permeabilization was accomplished with 1 mL 0.25% Triton X-100 (Sigma-Aldrich, St. Louis, Mo.) and non-specific binding was blocked with 10% bovine serum albumin (in PBS) for 30 minutes. Primary immunolabeling was accomplished by 18-24 hour exposure to rabbit anti-Kv2.1 polyclonal antibody (1:500 in 3% BSA; RRID AB_2040162; Alomone Labs, Jerusalem, Israel), mouse anti-VAPA monoclonal antibody (1:500 in 3% BSA; RRID AB_2722702; UC Davis/NeuroMab Facility), and chicken anti-MAP2 polyclonal antibody (1:1000 in 3% BSA; RRID AB_5392; Abcam, Cambridge, Mass.) in 3% BSA (in PBS) at 4° C. under gentle agitation. […]
B3: binds.
